{"source": "paper PMC2172020", "molecular_target": "HIS-CLIP-170 (rat) (UniProt Q9JK25)", "assay": "scanning force microscopy", "data": [{"substance": "HIS-CLIP-170 (from UniProt Q9JK25 1-1320) (natural protein)", "values": [{"measurement": "stoichiometry N", "result": 2}]}]}
